These are literature values, as cited in article PMC10379010, “Short Peptides of Innate Immunity Protein Tag7 (PGLYRP1) Selectively Induce Inhibition or Activation of Tumor Cell Death via TNF Receptor” (International Journal of Molecular Sciences, 2023).

This data set concerns TNFR1. On the set-up: method as in 3 sources, ref [14] = [14]; PMID 32093269; doi:10.3390/cells9020488; 14. Romanova E.A. Sharapova T.N. Telegin G.B. Minakov A.N. Chernov A.S. Ivanova O.K. Bychkov M.L. Sashchenko L.P. Yashin D.V. A 12-mer Peptide of Tag7 (PGLYRP1) Forms a Cytotoxic Complex with Hsp70 an ||| ref [15] = [15]; PMID 34163464; doi:10.3389/fimmu.2021.622471; 15. Telegin G.B. Chernov A.S. Kazakov V.A. Romanova E.A. Sharapova T.N. Yashin D.V. Gabibov A.G. Sashchenko L.P. A 8-mer Peptide of PGLYRP1/Tag7 Innate Immunity Protein Binds to TNFR1 Receptor and Inh ||| ref [10],[11] = [10]; PMID 26183779; doi:10.1074/jbc.M115.639732; 10. Yashin D.V. Ivanova O.K. Soshnikova N.V. Sheludchenkov A.A. Romanova E.A. Dukhanina E.A. Tonevitsky A.G. Gnuchev N.V. Gabibov A.G. Georgiev G.P. Tag7 (PGLYRP1) in Complex with Hsp70 Induces Altern || [11]; PMID 32636466; doi:10.1038/s41598-020-68088-x; 11. Sharapova T.N. Romanova E.A. Soshnikova N.V. Belogurov A.A. Jr. Lomakin Y.A. Sashchenko L.P. Yashin D.V. Autoantibodies from SLE patients induce programmed cell death in murine fibroblast cells th. Particulars: death under action of a specific ligand of TNFR1 or DNA-hydrolyzing autoantibodies; ref [10],[11].

B1: Tag7: innate immunity protein Tag7 (PGLYRP1), ligand of the TNFR1 receptor; recombinant (protein)
chain: QETEDPACCSPIVPRNEWKALASECAQHLSLPLRYVVVSHTAGSSCNTPASCQQQARNVQHYHMKTLGWCDVGYNFLIGEDGLVYEGRGWNFTGAHSGHLWNPMSIGISFMGNYMDRVPTPQAIRAAQGLLACGVAQGALRSNYVLKGHRDVQRTLSPGNQLYHLIQNWPHYRSP
For the molecule B1, the “Inhibition of death of tumor cells, Tag7” value is reported as “inhibits the death of tumor cells”.
